According to patent publication EP2594588A1:

Molecular target: ADM (agonist of the ADM-Bioassay, human or mouse not told)
Assay: cell-based or functional assay

Maximal inhibition of ADM bioactivity (ADM-Bioassay) (%): 0%
Substance: Non specific mouse IgG (antibody)
